Data taken from patent US20160333065A1 (ACADEMISCH ZIEKENHUIS LEIDEN H O D N LUMC, published 2016).

What was measured:
HLA-B8 (B*0801) [1] = target: T1, HLA-B8 (B*0801) (human); experiment: cell competition vs FLRGRAC(FI)GL, stripped Vavy B-LCL, FACS
T1 construct: Acid-stripped B-LCL

HLA-B7 (B*0702) [2] = target: T2, HLA-B7 (B*0702) (human); experiment: cell competition vs APAPAPC(FI)WPL, stripped JY B-LCL, FACS
T2 construct: Acid-stripped B-LCL

HLA-B7 (B*0702) [3] = target: T3, HLA-B7 (B*0702) (human); experiment: competition vs APAPAPC(FI)WPL on stripped B-LCL, FACS
T3 construct: HLA class I on acid-stripped EBV-transformed B cells (B-LCL)

HLA-B8 (B*0801) [4] = target: T4, HLA-B8 (B*0801) (human); experiment: competition vs FLRGRAC(FI)GL on stripped B-LCL, FACS
T4 construct: HLA class I on acid-stripped EBV-transformed B cells (B-LCL)

HLA-B62 (B*1501) = target: T5, HLA-B62 (B*1501) (human); experiment: cellular competition binding assay on acid-stripped B-LCL BSM, flow cytometry; competitor Fl-labeled reference peptide YLGEFSC(Fl)TY
T5 construct: MHC class I molecule on mild-acid-stripped EBV-transformed B cells (BSM)

HLA-B60 (B*4001) = target: T6, HLA-B60 (B*4001) (human); experiment: cellular competition binding assay on acid-stripped B-LCL DKB, flow cytometry; competitor Fl-labeled reference peptide KESTC(Fl)HLVL
T6 construct: MHC class I molecule on mild-acid-stripped EBV-transformed B cells (DKB)

HLA-A3 (A*0301) = target: T7, HLA-A3 (A*0301) (human); experiment: cellular competition binding assay on acid-stripped B-LCL EKR, flow cytometry; competitor Fl-labeled reference peptide KVFPC(Fl)ALINK
T7 construct: MHC class I molecule on mild-acid-stripped EBV-transformed B cells (EKR)

HLA-B8 (B*0801) [5] = target: T8, HLA-B8 (B*0801) (human); experiment: cellular competition binding assay on acid-stripped B-LCL Vavy, flow cytometry; competitor Fl-labeled reference peptide FLRGRAC(Fl)GL
T8 construct: MHC class I molecule on mild-acid-stripped EBV-transformed B cells (Vavy)

HLA-B35 (B*3501) = target: T9, HLA-B35 (B*3501) (human); experiment: cellular competition binding assay on acid-stripped B-LCL BVR, flow cytometry; competitor Fl-labeled reference peptide NPDIVC(Fl)YQY
T9 construct: MHC class I molecule on mild-acid-stripped EBV-transformed B cells (BVR)

B1: PRAME peptide RPRRWKLQVL (peptide)
peptide: RPRRWKLQVL
IC50 (HLA-B8 (B*0801) [1]): < 1000 nM
IC50 (HLA-B7 (B*0702) [2]): < 1000 nM

B2: PRAME 113-122 RPRRWKLQVL (peptide)
peptide: RPRRWKLQVL
IC50 (HLA-B7 (B*0702) [3]): < 1000 nM
IC50 (HLA-B8 (B*0801) [4]): < 1000 nM

B3: PRAME 439-448 VLYPVPLESY (peptide)
peptide: VLYPVPLESY
IC50 (HLA-B62 (B*1501)): 1660 nM

B4: PRAME 448-457 YEDIHGTLHL (peptide)
peptide: YEDIHGTLHL
IC50 (HLA-B60 (B*4001)): < 1000 nM

B5: PRAME 459-468 RLAYLHARLR (peptide)
peptide: RLAYLHARLR
IC50 (HLA-A3 (A*0301)): 1000 nM

B6: PRAME 462-470 YLHARLREL (peptide)
peptide: YLHARLREL
IC50 (HLA-B8 (B*0801) [5]): < 1000 nM

B7: PRAME 499-507 EPILCPCFM (peptide)
peptide: EPILCPCFM
IC50 (HLA-B35 (B*3501)): 320 nM
